The values below come from patent US20240400651A1.

The assay deals with Spike proteins of the wild-type Wuhan-Hu-1 strain and the D614G, B.1.1.7, B.1.351, P.1, B.1.526 and. Briefly: cell-based or functional assay.

B1: Mab #25 (antibody, V domains shown)
VH: EVQLVESGAEVKKPGESLKISCKGSGYTFTRYWIGWVRQMPGKGLEWMGIIYPGDSDTRYSPSFQGHVTISADKSISTAYLQWNSLKASDTAMYYCARLPQYCSNGVCQRWFDPWGQGTLVTVSS
VL: EIVLTQSPSSVSASVGDRVTITCRASQGISSWLAWYQQKPGKAPKLLIYAASSLQSGVPSRFSGSGSGTDFTLTISSLQPEDFATYYCQQGNSFPYTFGQGTNLEIK
In the case of B1, the IC50, infectivity assays using pseudoviruses was in the range of 0.05 to 0.2 µg/mL.
